Molecular target: the molecule itself
Experiment: crystal structure; serial femtosecond crystallography (XFEL, LCLS CXI) at room temperature (291 K) on crystals grown in living Sf9 cells, isolated and kept in PBS; 2.80 Å; space group P4 21 2, two monomers in the asymmetric unit; native ATP and GMP bound

B1: Trypanosoma brucei inosine-5'-monophosphate dehydrogenase (enzyme, UniProt P50098 1-512, looked up)
chain: MENTNLRTKTLRDGTTAEELFSQDGLSFNDFIILPGFIDFDSSKVNVSGQFTKNILLHLPLVSSPMDTVTESSMARAMALMGGIGVIHNNCTVEQQARMVRSVKLYRNGFIMKPKSVSPDVPVSTIRNIKSEKGISGILVTEGGKYDGKLLGIVCTKDIDFVKDASAPVSQYMTRRENMTVERYPIKLEEAMDVLNRSRHGYLPVLNDKDEVVCLCSRRDAVRARDYPNSSLDRNGHLLCAAATSTREADKGRVAALSEAGIDVLVLDSSQGNTIYQVSFIRWVKKTYPHLEVVAGNVVTQDQAKNLIDAGADSLRIGMGSGSICITQEVLACGRPQATAIYKVARYAASRGVPCVADGGLRNVGDVCKALAVGANVAMLGSMIAGTSETPGEYFFKDGMRLKGYRGMGSIDAMLQGRESGKRYLSENETLQVAQGVAGAVLDKGSVLKLLAYIHKGLQQSAQDIGEVSFDAIREKVYEGQVLFNRRTLTAQSEGAVHSLHHYERKLFASKL
notes: Inosine-5'-monophosphate dehydrogenase of Trypanosoma brucei, full length, with its native C-terminal SKL motif (PTS1); Two monomers in the asymmetric unit; the octamer arises by crystal symmetry; also called TbIMPDH; IMPDH; source: Sf9 insect cells infected with recombinant baculovirus; crystallised in cellulo, crystals isolated by cell lysis (RIPA buffer), washed and stored in PBS; not shown: …
- stoichiometry N: 8

Source: paper PMC6992785, “In cellulo crystallization of Trypanosoma brucei IMP dehydrogenase enables the identification of genuine co-factors” (Nature Communications, 2020)
